How the values were obtained:
human D-dimer (human) = human D-dimer (human) (UniProt P02671); assay: competitive inhibition ELISA: HRP-B4 pre-incubated with soluble antigen, then added to a D-dimer-coated plate
D monomer = D monomer (UniProt P02671); assay: as above

monoclonal antibody B4
Kd (human D-dimer (human)): 0.98 nM
reactivity (D monomer): 5 µM

Reference: US20190011465A1
